The target of one data set is 8C2 Fab. As to the kind of experiment: Competitive SPR assay on exatecan chip. Format: binding. Conditions: 5 nM Fab, 1 hour incubation. On the procedure: Exatecan was immobilized onto a CMS chip through amine coupling. […] Dilutions were incubated for one hour and subsequently injected over the exatecan immobilized chip. The observed maximum response data was fit to a 3 parameter inhibition equation in GraphPad Prism 7.
B/Bo is signal reached after a 3.5 minute injection with spiked in drugs divided by signal with Fab alone.

Another data set deals with SKBR3 cells. The data set can be described thus: Competitive cell assay with SKBR3 cells. It counts as cell-based. As for the experimental part:
SKBR3 cells were diluted to 4000 cells/100 μL and 100 μL was added to individual wells of a 96 well culture plate. Cells were incubated overnight to allow cells to adhere to the plate. […] Dxd and SN38 were diluted at the indicated concentrations and incubated for 90 minutes. Following incubation dilutions were added to individual wells in triplicate with fresh media dilutions added on day 1, 3 and 5 with cell viability evaluated on day 7 using an MTT assay.

In a further data set the test system is NCI-N87 cells. As to the kind of experiment: Cytotoxicity of MMAE and T-vc-MMAE in NCI-N87 cells with or without plasma. It counts as cell-based. Conditions: 96 h, MMAE alone. On the procedure:
(§1) Log-phase MOLM-14, Ramos (RA 1), HT-29, LS174T, or NCI-N87 cells were seeded in 96-well microtiter plates at a density of 20,000 cells/well, 20,000 cells/well, 5,000 cells/well, 5,000 cells/well, and 10,000 cells/well, respectively, in 100 μL of culture medium. HT-29, LS174T, and NCI-N87 cells were allowed to adhere for 24 h before cell culture media was aspirated and replaced with 100 μL of fresh media containing a range of treatment for, 48 (LS174T), 96 (NCI-N87), or 120 (HT-29) h. MOLM-14 and Ramos cells were re-suspended with treatment solutions, where 100 μL of cell-treatment suspension was aliquoted into wells of a 96-well plate for 24 h. Treatment solutions consisted of calicheamicin, MMAE, topotecan, or SN38 with or without immunized animal plasma, purified anti-drug antibody, or antibody-drug conjugate (ADC) with or without plasma or anti-drug antibody. For MOLM-14 and Ramos cells, 25 μL of MTT solution (5 mg/mL in pH 7.4 1× PBS) was added directly to wells following treatment incubation. For adherent cells, treatment media was aspirated from wells and cells were washed three times with 100 μL of fresh media. Following the final wash, 100 μL of complete media and 25 μL of MTT solution were added to each well.

In the next data set the test system is HT-29 cells. As to the kind of experiment: Competitive cell cytotoxicity (MTT) assay with HT-29 cells. It counts as cell-based. Conditions: in absence of 8C2, read-out: IC50 of SN38. On the procedure:
as §1

In another data set the test system is 8C2 mAb. As to the kind of experiment: Competitive ELISA of 8C2 with topotecan and SN38 (BSA-topotecan coated). Format: binding, murine. As to conditions: 8C2 held constant at 10 nM; read-out: IC50 in competitive ELISA vs intact 8C2. On the procedure:
A competitive ELISA was employed to determine the affinity of intact 8C2 mAb for SN38 and topotecan. A BSA-topotecan conjugate was synthesized and immobilized as previously described (Shah et al., Int J Pharm. 2014; 465(1-2):228-238. doi:10.1016/j.ijpharm.2014.01.038) 8C2 concentration was held constant at 10 nM with increasing concentrations of topotecan or SN38. 8C2 drug samples were incubated for 2 hours at room temperature with agitation. Following incubation, wells were washed three times with 250 μL of PBS-T and three times with dH2O. Wells were then incubated with a 1:500 dilution anti-mouse AP conjugate secondary in PBS-T with 3% BSA for 1 h. After washing, 250 μL of 4 mg/ml PNPP in diethanolamine buffer pH 9.8 with absorbance being read at 405 nm. The change in absorbance over time data was fit to a four-parameter function in GraphPad Prism 7.
Background: In an ELISA, binding on a coated surface is turned into a signal by an enzyme label.

A short description of data set [1]: 8C2 VHH binding to SN38 immobilized on magnetic beads. As for the experimental part:
The complementarily determining regions of the 8C2 heavy chain were placed into the stable human framework m0 that was reported by Dimitrov et al (PMID 18687338). DNA encoding for the 8C2 VHH was synthesized by GeneArt. DNA sequences were ligated into the Pet22b vector between the XhoI and NdeI restriction enzyme sites. DNA was transformed into Shuffle T7 express E. coli cells and expressed using standard recombinant expression. To evaluate binding activity, 8C2 VHH was incubated with SN38 immobilized onto magnetic beads and bound VHH detected with an anti-HIS tag HRP labeled reporter antibody. Intact 8C2 mAb was incubated alone and in-combination with 8C2 VHH and 8C2 mAb binding evaluated with an anti-mouse IgG HRP reporter antibody.

Data set [2] in a line: Competitive ELISA with free DM4. Format: binding. On the procedure:
To determine the binding affinity of the anti-DM4 sdAbs to DM4-conjugates and free DM4, indirect ELISA and competitive ELISA were employed. Briefly, ELISA plate were coated overnight with 100 μL of neutravidin at different concentration ranging from 1 μg/mL to 10 μg/mL. After blocking with 200 μL of 2% skimmed milk-PBST for 1 h, 100 μL of 1 μM biotin-DM4 solution was added into each well and incubated for 30 min, then 100 μL of purified anti-DM4 sdAb solution at concentration ranging from 0.1 nM to 1 μM was added and incubated for 1 h. Bound sdAbs were detected with HRP conjugated anti-His antibody and TMB substrate. After the linear range of binding was determined via the indirect ELISA, a concentration of anti-DM4 sdAb near the IC50 of binding was selected to proceed with competitive ELISA. For the competitive ELISA, anti-DM4 sdAb concentration was held constant as determined from the indirect ELISA and incubated with increasing concentration of DM4 ranging from 0.1 nM to 1 μM.

A further data set has as its system MV-4-11 cells. The data set can be described thus: MTT assay with DMFH1 in AML cell line MV-4-11. Conditions: MV-4-11, 48-hour exposure, 10 μM DMFH1. (Tetrazolium dyes change colour on reduction, which living cells bring about.)
The test system of the next data set is KG-1 cells. The data set can be described thus: MTT assay with DMFH1 in AML cell line KG-1. As to conditions: KG-1, 48-hour exposure, 10 μM DMFH1.
The subject of another data set is MOLM-14 cells. As to the kind of experiment: MTT assay with DMFH1 in AML cell line MOLM-14. Conditions: MOLM-14, 48-hour exposure, 10 μM DMFH1.
In data set [3] the test system is SK-BR-3 cells. As to the kind of experiment: MTT cytotoxicity assay in SK-BR-3 cells. As to conditions: 24 h exposure, 10 μM sdAb. It counts as cell-based. As for the experimental part:
Positive clone sdAbs' DNA in pComb3XSS plasmid was isolated and transferred into pET-22b expression vector in SHuffle cells for expression. SK-BR-3 cells were used to test the anti-DM4 sdAbs effect on DM4 cytotoxicity. Briefly, 2,500 cells/well were seeded into a 96-well plate and allowed to adhere for 24 h before cell culture media was aspirated and replaced with 100 μL of fresh media solution containing with or without 10 μM of anti-DM4 sdAb and a range of DM4 concentration for another 24 h exposure period. The cells were then washed 2 times before replacing with fresh media and allowed to grow for additional 72 h.

Data set [4] deals with SK-BR-3 cells. The data set can be described thus: MTT cytotoxicity assay in SK-BR-3 cells. Format: cell-based. As to conditions: 10 μM DMFH1.
The next data set concerns Kasumi-3 cells. The data set can be described thus: MTT assay with DMFH1 in AML cell line Kasumi-3. As to conditions: Kasumi-3, 48-hour exposure, 10 μM DMFH1.

This is an account of results in US12624123B2, “Compositions and methods for reducing off-target toxicity of antibody drug conjugates” (The Research Foundation for The State University of New York, priority 2019, dated 2026).

Where “and” joins values, the source holds several entries; their conditions need not be identical. Equal entries are not always repeated. Entries after “also recorded” stand apart in the source; their conditions may differ. Where two headings read alike, the source gives them in different places. Square brackets hold non-standard residues; d marks the D form. Peptide text beside a SMILES is read from it. * marks the point of attachment. Dolaproine = CO[C@@H]([C@@H]1CCCN1)[C@@H](C)C(=O)O; Dil = CC[C@H](C)[C@H](NC)[C@@H](CC(=O)O)OC; X1 = C[C@@H](N*)[C@@H](O)c1ccccc1; NMeV = CN[C@H](C(=O)O)C(C)C

As usually defined, the IC50 is the concentration at which inhibition is half-maximal. As usually defined, the Kd is a measure of binding affinity in units of concentration.

Experimental for KG-1 cells: (§2) MTT Cell based assay with DMFH1 in AML cell lines. Cell cytotoxicity of DM4 on MOLM-14, KG-1, Kasumi-3, MV-4-11 cells with and without 10 μM of DMFH1 sdAb over a 48-hour exposure periods.
Experimental for Kasumi-3 cells: as §2
Experimental for MOLM-14 cells: as §2
Experimental for MV-4-11 cells: as §2

`CC[C@@]1(O)C(=O)OCc2c1cc1n(c2=O)Cc2c-1nc1cc(F)c(C)c3c1c2[C@@H](NC(=O)CO)CC3` [Dxd]: the “IC50 for inhibition of Fab binding to immobilized exatecan” value on 8C2 Fab is “low-nanomolar”. Moreover, in the data set with SKBR3 cells (viability day 7, read-out: IC50 of Dxd alone), the IC50 stood at 0.7 nM.

As to `CC[C@H](C)[C@@H]([C@@H](CC(=O)N1CCC[C@H]1[C@H](OC)[C@@H](C)C(=O)N[C@H](C)[C@@H](O)c1ccccc1)OC)N(C)C(=O)[C@@H](NC(=O)[C@@H](NC)C(C)C)C(C)C` [MMAE, monomethyl auristatin E] (H-[NMeV]V[Dil][Dolaproine]-X1), in the data set with NCI-N87 cells, the concentration for half-maximal inhibition (IC50) stood at 0.496 ± 0.0327 nM.

Take `CCc1c2c(nc3ccc(O)cc13)-c1cc3c(c(=O)n1C2)COC(=O)[C@]3(O)CC` [SN38]: at 8C2 Fab, the “IC50 for inhibition of Fab binding to immobilized exatecan” value is “low-nanomolar”. Besides, the half-inhibitory concentration (IC50) worked out at 8 nM in the data set with HT-29 cells; 1.4 nM with SKBR3 cells (viability day 7, read-out: IC50 of free SN38); 10.3 nM in the data set with 8C2 mAb.

B1: 8C2 VHH: heavy chain CDRs of 8C2 placed into a stable human framework, SEQ ID NO:69 (protein)
VHH: QVQLVQSGGGLVQPGGSLRLSCAASGFNIKDTYIHWMSWVRQAPGKGLEWVSPDLANDNTKYDPKYYADSVKGRFTISRDNSKNTLYLQMNTLRAEDTAVYYCATWGAIITLGGWGQTMVTVSS
modifications: 8C2 VHH
B1: the “increase in binding signal vs beads with blank buffer” value in data set [1] (anti-HIS detection) was 2 ×. Besides, the “decrease of 8C2 mAb binding by addition of 8C2 VHH” value in data set [1] (anti-mouse IgG detection) is listed as approximately 2 fold.

B2: DMFH1 (protein)
VHH: QVQLQESGGGLVQPGGSLRLSCAASGSIFGISYMGWYRQAPGKQREPVAMITSGGSTYYADSVKGRVTISRDNAKKTVYLQMNSLRPEDASTYYCAAGCYRSDSPNRYDYWGQGTQVTVSS
modifications: DMFH1
Turning to B2, the Kd in data set [2] (free DM4, read-out: Estimated KD) is 11 nM and 10.5 nM. Moreover, in [2] (read-out: Estimated binding affinity IC50 to free DM4), the half-inhibitory concentration (IC50) is 11 nM. Besides, the “fold shift of DM4 IC50” value in the data set with MV-4-11 cells is listed as 50.9 fold; with KG-1 cells, 57.2 fold; in the data set on MOLM-14 cells, 60.7 fold; in the data set on Kasumi-3 cells, 38.3 fold. Further, the “Fold shifted (DM4 IC50)” value in the data set on SK-BR-3 cells [3] was 254 fold and 250.5 fold. Besides, the “effect on Trastuzumab Emtansine (T-DM1) cytotoxicity” value in the data set with SK-BR-3 cells [4] is “did not alter the cytotoxicity; also recorded: did not change T-DM1 cytotoxicity significantly”. In the data set on SK-BR-3 cells [4] (24 h), the “fold shift of DM1 IC50” value came to 85.6 fold.
